The target in assay [1] is recombinant Srr2 binding region (rSrr2-BR) (Streptococcus agalactiae (GBS) strain BM110) (UniProt Q3S2Y8). The assay is described as follows: SPR; rSrr2 proteins amine-coupled to a CM5 chip (Biacore X-100); Fn injected; 25 °C, HEPES-EP+ pH 7.4, 0.15 M NaCl, 30 uL/min; steady-state fit, 1:1 model. For orientation: Surface plasmon resonance follows binding to a sensor surface in real time, without labels.

Assay [2] shares this target. The assay is described as follows: ELISA; Srr2 proteins coated on microtiter wells (1 ug/well, 0.1 M sodium carbonate pH 9.5); soluble Fn (up to 240 nM) or Fbg (up to 7.5 nM) for 1 h; detected with mouse anti-Fn or anti-Fbg IgG; apparent Kd; in a further set increasing NaCl (0 to 1 M) strongly impaired the binding to rSrr2-BR. Background: In an ELISA, binding on a coated surface is turned into a signal by an enzyme label.

A further assay deals with human fibrinogen (Fbg) (human, UniProt P02671 36-866); P02675 45-491; P02679 27-453, Plasma-derived, disulfide-linked hexamer, glycosylated. Chains are the circulating forms by convention: A-alpha 610 aa, B-beta 461 aa, gamma-A 411 aa (the canonical P02679 sequence is gamma-B, so gamm). The assay is described as above. The settings on record: both partners purified.
Assay [3] addresses human plasma fibronectin (Fn) (human). The assay is described as follows: ELISA; apparent; soluble Srr2-BR on immobilized Fn.

Chain of human plasma fibronectin (Fn) (human) (P02751 other isoform, or with tags, fused parts or gaps, chain 1 of 2): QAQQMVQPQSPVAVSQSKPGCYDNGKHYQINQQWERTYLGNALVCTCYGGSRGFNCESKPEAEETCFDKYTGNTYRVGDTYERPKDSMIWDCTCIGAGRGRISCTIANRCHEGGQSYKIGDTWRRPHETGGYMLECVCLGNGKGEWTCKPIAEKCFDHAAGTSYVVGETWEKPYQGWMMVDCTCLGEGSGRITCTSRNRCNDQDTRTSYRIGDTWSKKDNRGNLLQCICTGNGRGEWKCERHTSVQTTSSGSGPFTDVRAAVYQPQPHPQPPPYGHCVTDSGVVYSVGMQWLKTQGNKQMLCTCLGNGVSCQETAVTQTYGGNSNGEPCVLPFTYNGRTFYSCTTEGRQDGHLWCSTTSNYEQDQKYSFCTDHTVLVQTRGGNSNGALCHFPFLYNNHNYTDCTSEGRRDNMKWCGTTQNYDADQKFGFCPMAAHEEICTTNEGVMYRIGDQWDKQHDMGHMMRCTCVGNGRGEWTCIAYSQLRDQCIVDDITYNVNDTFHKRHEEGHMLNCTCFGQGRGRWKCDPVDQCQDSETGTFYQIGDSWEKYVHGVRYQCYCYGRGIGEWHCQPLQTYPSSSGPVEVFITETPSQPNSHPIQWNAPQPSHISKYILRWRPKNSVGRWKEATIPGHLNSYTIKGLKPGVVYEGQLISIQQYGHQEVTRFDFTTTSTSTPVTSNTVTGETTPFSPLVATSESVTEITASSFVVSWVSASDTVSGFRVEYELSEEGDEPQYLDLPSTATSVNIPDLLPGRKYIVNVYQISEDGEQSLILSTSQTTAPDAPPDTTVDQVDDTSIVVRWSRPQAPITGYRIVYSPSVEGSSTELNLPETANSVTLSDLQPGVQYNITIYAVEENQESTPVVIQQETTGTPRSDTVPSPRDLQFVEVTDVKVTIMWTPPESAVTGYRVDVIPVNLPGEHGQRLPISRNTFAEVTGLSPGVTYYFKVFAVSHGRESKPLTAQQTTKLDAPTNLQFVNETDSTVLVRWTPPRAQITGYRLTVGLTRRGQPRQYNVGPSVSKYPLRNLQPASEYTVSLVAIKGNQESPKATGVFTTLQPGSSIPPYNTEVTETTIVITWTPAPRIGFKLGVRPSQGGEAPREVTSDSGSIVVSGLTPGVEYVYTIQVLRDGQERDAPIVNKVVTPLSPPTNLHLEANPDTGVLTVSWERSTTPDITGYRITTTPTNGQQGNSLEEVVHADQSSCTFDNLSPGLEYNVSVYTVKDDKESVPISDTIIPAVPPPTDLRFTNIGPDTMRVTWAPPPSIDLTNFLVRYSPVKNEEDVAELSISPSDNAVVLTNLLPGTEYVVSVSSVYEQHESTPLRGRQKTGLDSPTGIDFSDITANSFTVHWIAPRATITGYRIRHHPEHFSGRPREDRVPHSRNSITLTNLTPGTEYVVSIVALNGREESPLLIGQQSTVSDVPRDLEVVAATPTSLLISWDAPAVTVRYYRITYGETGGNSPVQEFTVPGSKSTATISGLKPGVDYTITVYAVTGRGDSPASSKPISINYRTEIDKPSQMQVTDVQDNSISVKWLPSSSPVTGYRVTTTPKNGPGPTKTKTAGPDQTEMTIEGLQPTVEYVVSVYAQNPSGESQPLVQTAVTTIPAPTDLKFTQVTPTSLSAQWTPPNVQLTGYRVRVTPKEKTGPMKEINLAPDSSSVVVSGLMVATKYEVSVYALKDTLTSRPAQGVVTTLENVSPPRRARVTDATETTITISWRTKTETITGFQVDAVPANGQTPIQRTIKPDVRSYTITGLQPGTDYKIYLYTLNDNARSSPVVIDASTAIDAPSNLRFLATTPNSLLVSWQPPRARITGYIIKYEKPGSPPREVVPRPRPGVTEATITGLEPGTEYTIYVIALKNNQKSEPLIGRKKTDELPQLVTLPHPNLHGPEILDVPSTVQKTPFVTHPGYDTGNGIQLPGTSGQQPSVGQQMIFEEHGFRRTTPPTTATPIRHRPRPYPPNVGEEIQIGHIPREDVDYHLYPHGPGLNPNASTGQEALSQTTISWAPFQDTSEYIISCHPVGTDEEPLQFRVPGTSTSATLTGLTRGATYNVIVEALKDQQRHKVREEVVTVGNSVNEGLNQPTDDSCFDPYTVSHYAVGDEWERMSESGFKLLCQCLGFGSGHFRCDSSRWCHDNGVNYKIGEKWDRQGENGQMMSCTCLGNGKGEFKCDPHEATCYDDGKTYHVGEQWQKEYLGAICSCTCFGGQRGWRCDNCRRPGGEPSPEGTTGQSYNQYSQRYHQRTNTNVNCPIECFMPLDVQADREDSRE
Chain of human plasma fibronectin (Fn) (human) (P02751 other isoform, or with tags, fused parts or gaps, chain 2 of 2): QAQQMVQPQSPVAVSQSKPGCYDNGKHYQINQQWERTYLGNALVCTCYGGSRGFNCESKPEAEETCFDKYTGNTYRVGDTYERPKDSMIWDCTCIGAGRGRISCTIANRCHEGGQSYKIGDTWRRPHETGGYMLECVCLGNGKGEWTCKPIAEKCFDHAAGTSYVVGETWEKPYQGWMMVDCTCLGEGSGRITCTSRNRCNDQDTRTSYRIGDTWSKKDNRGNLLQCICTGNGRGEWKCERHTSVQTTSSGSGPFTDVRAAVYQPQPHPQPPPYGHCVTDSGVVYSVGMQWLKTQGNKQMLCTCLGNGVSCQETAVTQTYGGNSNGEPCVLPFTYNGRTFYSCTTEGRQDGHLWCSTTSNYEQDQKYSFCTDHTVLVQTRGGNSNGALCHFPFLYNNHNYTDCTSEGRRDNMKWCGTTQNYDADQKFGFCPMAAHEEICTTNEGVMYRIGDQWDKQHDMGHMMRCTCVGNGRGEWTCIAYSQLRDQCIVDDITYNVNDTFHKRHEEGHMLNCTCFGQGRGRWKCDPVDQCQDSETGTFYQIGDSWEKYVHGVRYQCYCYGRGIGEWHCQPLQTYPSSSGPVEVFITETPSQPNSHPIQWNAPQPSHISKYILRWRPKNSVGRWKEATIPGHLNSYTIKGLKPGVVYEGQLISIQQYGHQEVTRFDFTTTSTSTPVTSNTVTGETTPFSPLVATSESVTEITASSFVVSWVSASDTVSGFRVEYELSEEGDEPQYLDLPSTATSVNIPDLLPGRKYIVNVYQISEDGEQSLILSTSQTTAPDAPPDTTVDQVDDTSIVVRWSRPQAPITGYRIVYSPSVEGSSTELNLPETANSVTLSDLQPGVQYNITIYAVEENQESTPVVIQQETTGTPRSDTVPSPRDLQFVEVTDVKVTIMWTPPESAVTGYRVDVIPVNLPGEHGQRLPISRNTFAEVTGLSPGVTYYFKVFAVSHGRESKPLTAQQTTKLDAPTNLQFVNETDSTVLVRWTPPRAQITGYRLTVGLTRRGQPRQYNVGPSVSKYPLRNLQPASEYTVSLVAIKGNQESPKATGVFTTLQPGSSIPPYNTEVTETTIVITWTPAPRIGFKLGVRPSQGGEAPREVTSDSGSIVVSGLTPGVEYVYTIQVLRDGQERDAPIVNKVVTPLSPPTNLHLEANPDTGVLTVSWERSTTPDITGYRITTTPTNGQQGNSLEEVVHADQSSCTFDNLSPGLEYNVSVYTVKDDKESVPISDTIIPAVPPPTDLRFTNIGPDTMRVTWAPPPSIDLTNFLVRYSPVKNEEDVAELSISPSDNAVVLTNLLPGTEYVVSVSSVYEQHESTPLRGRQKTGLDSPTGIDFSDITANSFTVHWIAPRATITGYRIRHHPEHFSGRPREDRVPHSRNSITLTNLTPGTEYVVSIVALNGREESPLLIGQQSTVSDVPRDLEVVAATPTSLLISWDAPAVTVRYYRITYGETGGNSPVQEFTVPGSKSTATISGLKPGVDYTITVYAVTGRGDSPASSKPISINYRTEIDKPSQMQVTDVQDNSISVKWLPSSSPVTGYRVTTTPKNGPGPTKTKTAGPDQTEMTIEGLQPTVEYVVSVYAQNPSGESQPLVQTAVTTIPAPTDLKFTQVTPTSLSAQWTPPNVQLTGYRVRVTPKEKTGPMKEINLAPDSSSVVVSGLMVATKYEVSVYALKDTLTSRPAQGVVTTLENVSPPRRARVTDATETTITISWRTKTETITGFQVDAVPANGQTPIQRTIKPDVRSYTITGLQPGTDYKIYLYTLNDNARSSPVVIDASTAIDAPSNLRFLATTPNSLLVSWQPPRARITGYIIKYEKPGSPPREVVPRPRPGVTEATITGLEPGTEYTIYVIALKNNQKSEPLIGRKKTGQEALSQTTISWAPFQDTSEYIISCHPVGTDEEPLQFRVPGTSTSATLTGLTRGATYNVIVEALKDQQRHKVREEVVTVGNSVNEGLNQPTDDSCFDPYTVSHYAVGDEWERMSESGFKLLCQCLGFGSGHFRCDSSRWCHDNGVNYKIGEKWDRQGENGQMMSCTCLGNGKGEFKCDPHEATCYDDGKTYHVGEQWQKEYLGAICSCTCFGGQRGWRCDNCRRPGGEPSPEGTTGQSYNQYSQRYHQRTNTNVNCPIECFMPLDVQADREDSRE

As to “human plasma fibronectin (Fn) (natural protein)”, the Kd in assay [1] worked out at 92 nM; in assay [2], 30 nM.

B1: recombinant Srr2 binding region (rSrr2-BR) (domain or fragment)
chain: EAATTARVQPRAMRVVSSASDMETLPAALISGEGDVTTVQGQDVTDKLQNLDIKLSGGVQAKAGVINMDKSESMHMSLKFTIDSVNRGDTFEIKLSDNIDTNGASNYSIVEPIKSPTGEVYATGIYDSQKKSIVYSFTDFAASKNNINGILDIPLWPDDTTVQNTKEDVLFSVKIKDQEATIKETVKYDPPVRIDFAGGVSVDSRITNIDDVGKKMTYISQINVDGKSLYNYNGLYTRIYNYSKESTADLKNSTIKIYKTTSDNIVESMVQDYSSMEDVTSKFANSYPEKGWYDIYWGQFIASNETYVIVVETPFTNAVTLNTTLSDYNENNGVEHNHTYSSESGYSDVNAQ
In the case of B1, the Kd came to 0.45 ± 0.02 nM with human fibrinogen (Fbg) and 629 nM in assay [3].

Source of the values: PMC11193222, “The serine-rich repeat glycoprotein Srr2 mediates Streptococcus agalactiae interaction with host fibronectin” (BMC Microbiology, 2024).
